Patent publication US10344295B2, “Methods and compositions for providing resistance to glufosinate” (priority 2014, dated 2019)

B1: SEQ ID NO: 9: glufosinate resistance protein from Serratia sp. strain APG00119, encoded by SEQ ID NO: 10 (protein)
chain: MTTLSAPVLSLLDATPDDMAAVLRIYTQHVLYGAASFEEQPPTLAEMQLRLSKVREAGLPWLVAKSAGVIVGYCYATPYRPRPAYRFTVEDSVYIAEGQQGKGIGRALLSALIARCEQGPWRQMLAIVGDSAANRGSLALHQSLGFTSAGTLKAVGFKLGEWRDTQIMQRALGAGGNRHP
modifications: Serratia sp. strain APG00119
B2: SEQ ID NO:1: glufosinate resistance protein from Pseudomonas sp. strain APG00318, encoded by SEQ ID NO: 2 (protein)
chain: MSKTTVRIAQVSDAQAIQAIYAPMVESTTISFELEPPSVEEMAMRIESTLLTYPYLVAVRDGQVIGYAYASQHRAREAYRWSVDVTVYISPEAHRSGVGRALYDVLLPTLKKQGFHAAYAGIALPNDGSVGLHEALGFAHIGTYPEVGFKHGAWRDVGYWRIALDSTNPPKLPVLFSEISLF
modifications: Pseudomonas sp. strain APG00318
B3: SEQ ID NO: 7: glufosinate resistance protein from Flavobacterium sp. strain APG00135, encoded by SEQ ID NO: 8 (protein)
chain: MSVILRPATVNDLEKILEIVNHSILHTTANYSYDIQTIEVQTKWFEDKKAKNLPIVVADLDGEVVGFGSYGQFREKIGYQYTVEHSVYVVDNVIGKGIGSKLLTELIRLAKEQGYHVMIGAIDADNAGSITFHEKFGFVATGTIREVGYKFDHWLDLVFMQLILK
modifications: Flavobacterium sp. strain APG00135

How the values were obtained:
TOP10 E. coli cells = test: minimum inhibitory concentration experiment: growth of E. coli in liquid media with glufosinate; type: cell-based
Experimental: FIG. 1 provides a minimal inhibitory concentration experiment. A polynucleotide encoding SEQ ID NO: 1 was transformed into E. coli cells for protein expression with an N-terminal maltose binding protein. The resulting E. coli clone was analyzed for the ability to grow in the presence of glufosinate.
Predicted ORFs (open reading frames) and protein products from genome sequences of several bacterial isolates were identified. A predicted protein was found with 43.53% identity to the phosphinothricin acetyltransferase (PAT) gene. This gene coding for a new GluR (glufosinate resistance) protein was cloned from that strain and is referred to herein as GluRAP1 and set forth in SEQ ID NO:1 (protein sequence) and 2 (DNA sequence). […] The gene coding for SEQ ID NO: 1 was cloned into the pMAL vector and transformed into TOP10 E. coli cells for protein expression with an N-terminal Maltose Binding Protein. […]
The strain was subsequently grown with success on 100 mM glufosinate-supplemented M63 minimal media; while the gene coding for a new GluR (glufosinate resistance) protein was cloned from that strain and referred to herein as GluRAP and set forth in SEQ ID NO:1 and 2. […] The resulting E. coli clone was analyzed for the ability to grow in the presence of glufosinate. […]

E. coli = test: growth of E. coli expressing MBP fusions under various glufosinate concentrations after IPTG induction (FIG. 3); type: cell-based; details: compared with the other genes
Experimental: Genes coding for glufosinate-resistant proteins were cloned as MBP (Maltose Binding Protein) fusions and expressed in E. coli. These E. coli strains were grown. The ability of the strains to tolerate and continue to grow in the presence of glufosinate was measured under various glufosinate concentrations upon induction of gene expression by addition of IPTG into the media in which the strains were growing.

soy callus = test: selection of transformed soy callus on medium containing glufosinate; type: cell-based, soybean; details: medium containing 25 uM glufosinate; construct pSV37; GUS stain confirmed
Experimental: Transgenic plants were selected by incubating callus on medium containing 25 uM glufosinate.
Transgenic plants were selected by incubating callus on medium containing 25 uM glufosinate. […] (FIG. 4) See above for construct pSV37 that carries APG00318 gene.

Molecule	glufosinate concentration tolerated by control E. coli (TOP10 E. coli cells; control E. coli, minimum inhibitory concentration experiments)	tolerance level to glufosinate of E. coli cultures carrying the gene (E. coli)	glufosinate resistance of transformed soy callus (soy callus)	concentration of glufosinate at which the E. coli clone was able to grow in liquid media (TOP10 E. coli cells; E. coli clone expressing the protein with N-terminal maltose binding protein (pMAL))
CP(=O)(O)CCC(N)C(=O)O (stereo not drawn) [glufosinate]	≤ 1 mM			
B1		higher tolerance level to glufosinate		
B2		higher tolerance level to glufosinate	Glufosinate resistance was observed	100 mM
B3		higher tolerance level to glufosinate		
